{"source": "FireProtDB (doi:10.1021/bi012113g)", "settings": "Vibrio harveyi; pH 7; 25 °C; Urea; CD; NaH2PO4/K2HPO4 50 mM; transition: 4; whole UniProt chain shown", "note": "Where “and” joins values, the source holds several entries; their conditions need not be identical. Equal values may be shown once.", "data": [{"protein": "Alkanal monooxygenase alpha chain wild type, P07740 (protein) MKFGNFLLTYQPPELSQTEVMKRLVNLGKASEGCGFDTVWLLEHHFTEFGLLGNPYVAAAHLLGATETLNVGTAAIVLPTAHPVRQAEDVNLLDQMSKGRFRFGICRGLYDKDFRVFGTDMDNSRALMDCWYDLMKEGFNEGYIAADNEHIKFPKIQLNPSAYTQGGAPVYVVAESASTTEWAAERGLPMILSWIINTHEKKAQLDLYNEVATEHGYDVTKIDHCLSYITSVDHDSNRAKDICRNFLGHWYDSYVNATKIFDDSDQTKGYDFNKGQWRDFVLKGHKDTNRRIDYSYEINPVGTPEECIAIIQQDIDATGIDNICCGFEANGSEEEIIASMKLFQSDVMPYLKEKQ", "values": [{"measurement": "unfolding free energy", "value": "4.5 kcal/mol and 2.8 kcal/mol"}]}]}
